This is an account of results in paper PMC2749821 (BMC Biology, 2009).

First the molecules themselves.
B1: bone morphogenetic protein 7 (BMP7), human (ligand, UniProt P18075 293-431, looked up)
chain: STGSKQRSQNRSKTPKNQEALRMANVAENSSSDQRQACKKHELYVSFRDLGWQDWIIAPEGYAAYYCEGECAFPLNSYMNATNHAIVQTLVHFINPETVPKPCCAPTQLNAISVLYFDDSSNVILKKYRNMVVRACGCH
modifications: biotin (sulfo-NHS-LC-biotin) where immobilised
notes: human BMP7, CHO-cell derived, bought; dimeric ligand; also called hBMP7; source: bought: R&D Systems (CHO-cell derived)
B2: BMP receptor II (BMPR-II) ectodomain, human (receptor, UniProt Q13873 32-150, looked up)
chain: RLCAFKDPYQQDLGIGESRISHENGTILCSKGSTCYGLWEKSKGDINLVKQGCWSHIGDPQECHYEECVVTTTPPSIQNGTYRFCCCSTDLCNVNFTENFPPPDTTPLSPPHSFNRDET
modifications: N-biotinylated (sulfo-NHS-LC-biotin) where immobilised
notes: also called hBMPR-II

Holding throughout (conditions): both partners purified
In test [1] the target is T1, activin receptor type II (ActR-II) ectodomain, human (human, UniProt P27037 18-135, N-biotinylated (sulfo-NHS-LC-biotin) where immobilised).
T1 construct: also called hActR-II
Nature of the test: SPR; Biacore 2000; receptor ectodomains as analyte over biotinylated ligands on streptavidin-coated CM5 chips; HBS500, 25°C, 10 μl/min; apparent affinities, 1:1 interaction.

Test [2] deals with B2. Nature of the test: SPR; Biacore 2000; ligands as analyte over biotinylated receptor ectodomains (about 200 RU) on streptavidin-coated CM5 chips; HBS500 (10 mM HEPES pH 7.4, 500 mM NaCl, 3.4 mM EDTA, 0.005% P20), 25°C, 10 μl/min; apparent affinities, 1:2 interaction with avidity.
In test [3] the target is T1, activin receptor type II (ActR-II) …. The description is as above.
Test [4] concerns the target B1. Nature of the test: SPR; Biacore 2000; receptor ectodomains as analyte over biotinylated ligands on streptavidin-coated CM5 chips; HBS500, 25°C, 10 μl/min; apparent affinities, 1:1 interaction. A general note: In SPR one partner is held on a chip, and binding of the other changes the refractive index at the surface.
For test [5], the target named is B1. Nature of the test: SPR; Biacore 2000; ligands as analyte over biotinylated receptor ectodomains (about 200 RU) on streptavidin-coated CM5 chips; HBS500 (10 mM HEPES pH 7.4, 500 mM NaCl, 3.4 mM EDTA, 0.005% P20), 25°C, 10 μl/min; apparent affinities, 1:2 interaction with avidity.
The target in test [6] is B2. Description: SPR; Biacore 2000; receptor ectodomains as analyte over biotinylated ligands on streptavidin-coated CM5 chips; HBS500, 25°C, 10 μl/min; apparent affinities, 1:1 interaction.

B1: in test [1], the Kd is 880 nM and the off-rate constant (koff) is > 0.1 s⁻¹. Further, the “KD (kin)” value in test [2] was found to be 25 nM. Further, in test [3], the “KD (kin)” value was 5.1 nM, the Kd came to 8 nM, the dissociation rate constant (koff) amounted to 0.0062 s⁻¹ and the on-rate constant (kon) turned out to be 1.2e+06 M⁻¹ s⁻¹.

For the molecule B2, in test [4], the Kd amounted to 9100 nM and the off-rate (koff) is > 0.1 s⁻¹. Moreover, in test [5], the Kd was 40 nM, the dissociation rate constant (koff) turned out to be 0.024 s⁻¹ and the kon was determined as 960000 M⁻¹ s⁻¹.

B3: growth and differentiation factor 5 (GDF5), mature part (ligand)
chain: MKRQGKRPSKNLKARCSRKALHVNFKDMGWDDWIIAPLEYEAFHCEGLCEFPLRSHLEPTNHAVIQTLMNSMDPESTPPTCCVPTRLSPISILFIDSANNVVYKQYEDMVVESCGCR
modifications: biotin (sulfo-NHS-LC-biotin) where immobilised
notes: N-terminal Met-Lys added to the mature part; dimeric ligand; source: E. coli, isolated from inclusion bodies, renatured and purified
Consider B3, for which the values for the Kd in test [6] and in test [2] were 60000 nM and 46 nM, respectively. Besides, the “KD (kin)” value in test [2] was 36 nM.

B4: bone morphogenetic protein 2 (BMP2), mature part, wild type (ligand, human)
chain: MAQAKHKQRKRLKSSCKRHPLYVDFSDVGWNDWIVAPPGYHAFYCHGECPFPLADHLNSTNHAIVQTLVNSVNSKIPKACCVPTELSAISMLYLDENEKVVLKNYQDMVVEGCGCR
modifications: biotin (sulfo-NHS-LC-biotin) where immobilised
notes: N-terminal Met-Ala added to the mature part; dimeric ligand; also called wtBMP2; BMP2wt; source: E. coli, isolated from inclusion bodies, renatured and purified
Turning to B4, the Kd in test [6] stood at 13000 nM. In test [2], the “KD (kin)” value worked out at 45 nM and the Kd worked out at 59 nM.

One may read the koff as the rate constant with which the complex falls apart. For orientation: kon means a measure of how fast the partners come together.
